Measurements reported in the supplement of paper PMC10567573.

B1: C10orf62 (parent)
chain: TSECPSDKDKSPESHKAKNESWIK
B2: TRIM43 (parent)
chain: FCDMDKSLLCLLCSNSQEHGAHKH

Variants of: B1
Test: protein stability index of a GFP-peptide fusion (GPS, HEK-293T) (PSI 1-6); higher = more stable
Settings: c terminus: a fixed tail appended
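Further: lentivirally expressed fusions sorted by FACS into six bins by GFP to DsRed ratio, PSI derived from sequencing read proportions per bin multiplied by bin number.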

Protein stability index of substitutions, site by site:
I23: G 5.32; H 5.18; Y 5.21; R 5.25; P 5.81; T 3.33; N 5.17; K 4.59; V 1.74; C 2.89; E 3.96; W 5.11; D 5.72; A 3.68; S 3.79; M 4.7; L 4.46; Q 2.89; F 5.32
S21: V 4.47; T 3.97; R 4.9; Y 4.3; W 4.49; P 3.56; Q 4.62
K24: A 2.9; P 4.73; G 3.77; N 3.17; C 3.2; T 3.18; E 2.15; D 2.99; W 3.43; S 3.48; F 3.37; I 2.69; M 2.76; V 2.96; H 3.56; L 2.66; Y 3.16; Q 2.27; R 3.92
W22: P 5.54; H 5.83; V 5.79; N 5.73; Y 5.23; A 5.34; E 5.67; T 5.54; M 5.6; F 5.62; S 5.82; Q 5.8; R 5.84; D 5.78; G 5.58; L 4.7; I 5.72; K 5.46; C 5.18

Variants of: B2
Test: as above
Settings: c terminus: a fixed tail appended

Protein stability index: each site, then its substitutions
L8: T 2.32; C 2.64; E 3.8; I 1.96; H 2.54; F 2.5; V 2.72; Y 2.03; Q 2.82; S 3.1; P 2.51; W 2.3; N 2.81; R 2.71; M 2.31; A 2.43; G 2.3; K 2.86; D 3.41
D5: R 1.74; C 2.02; T 2.34; W 3.29; A 2.67; P 2.29; E 1.92; N 1.8; F 3.03; M 2.97; S 1.79; K 2.22; G 2.33; I 3.01; L 2.69; Q 1.98; V 2.74; H 3.33; Y 2.18
K6: C 1.95; R 1.56; I 2.04; Q 2.38; F 2.24; S 2.17; M 2.21; W 2.04; V 1.74; T 1.94; Y 2.17; A 2.06; G 2.18; N 2.32; L 1.97; P 2.12; E 2.29; H 2.09; D 2.96
N15: E 1.92; A 1.6; C 1.77; D 2.26
L11: G 1.93; N 2.07; Q 2.36; Y 2.26; T 2.51; H 2.04; P 1.83; R 2.19; K 2.2; D 2.75; F 2.04; V 1.63; I 2.25; A 2.21; E 2.93; W 2.79; S 1.8; M 1.86; C 1.44
C10: Q 1.86; M 2.15; N 1.83; R 1.7; K 2.04; S 1.59; L 2.14; T 1.72; I 2.06; H 2.03; V 1.86; D 2.18; F 2.58; A 2.23; W 2.57; P 2.3; G 1.64; Y 2.65; E 2.23
D3: I 1.94; P 1.67; Y 2.48; H 2.35; V 2.76; T 1.82; M 2.54; E 2.09; A 2.15; C 2.26; Q 2.07; W 1.8; K 2.35; N 1.75; L 1.93; S 1.99; G 1.99; R 1.99; F 2
S7: H 2.22; V 1.79; A 1.77; N 2.22; E 2.12; D 2.48; T 2.04; Q 2.54; M 2.23; G 1.92; L 1.93; Y 2.1; K 1.92; F 2.72; I 1.84; W 1.79; R 1.65; P 2.62; C 2.26
C2: E 3.4; Q 2.43; D 3.65; L 2.21; T 1.84; W 2.38; S 2.51; A 1.54; R 2.84; V 1.86; G 1.77; N 2.58; M 2.31; H 2.22; Y 2.9; I 1.8; F 2.23; P 2.76; K 3.4
S14: I 1.52; D 1.72; T 2.02; W 2.06; N 2.01; G 2.26; K 2.12; E 2.02; F 1.45; H 1.87; L 2.08; A 1.87; Q 2.09; P 1.98; C 1.88; R 2.2; M 1.85; V 1.71; Y 1.82
L9: E 2.99; R 2.08; A 1.99; N 2.52; W 1.55; Y 1.46; Q 2.68; V 2.16; H 1.93; S 1.88; K 2.61; M 1.92; D 2.78; I 1.91; F 1.89; T 2.29; P 2.84; C 2.36; G 1.64
C13: L 2.07; H 1.88; W 2.72; I 2.04; A 1.15; V 2.3; S 1.61; R 2.13; G 1.9; K 2.15; D 1.99; T 1.83; Y 1.68; E 2.13; F 1.89; M 2.19; Q 2.53; N 1.87; P 2.13
F1: C 3.54; W 2.45; I 2.81; M 3.41; G 3.49; A 3.33; H 3.64; D 3.56; R 3.57; T 3.21; V 3.25; L 3.21; K 3.56; N 3.57; S 3.72; Q 3.72; E 4.17; Y 1.88; P 3.6
M4: R 2.16; P 2; G 1.96; Q 1.88; V 2.11; D 2.86; I 1.96; N 1.85; K 1.7; T 1.64; A 2.07; C 3.14; W 2.13; H 3.6; F 2.04; E 2.58; Y 2.07; L 1.98; S 2.19
L12: D 2.32; Y 1.75; M 2.06; K 2.12; I 1.78; V 1.93; E 2.55; Q 2.65; F 1.47; C 2.56; H 2.78; T 1.95; A 1.92; P 1.91; W 3.13; R 1.96; G 1.57; N 2.14; S 2.65
